Results from patent US20220088057.

Tested on: GST-fusion SMAD3 protein (Sigma-Aldrich Co. LLC.)

## His-fusion NEK6 protein (Eurofins Scientific SE)
  amount of phosphorylated SMAD3 (Western blot after in vitro kinase reaction of purified proteins with ATP): By using NEK6 protein, the amount of phosphorylated SMAD3 was elevated
